Reference: patent US10428140B2, “Anti-EphA4 antibody” (EISAI R&D MANAGEMENT CO., LTD., priority 2015, dated 2019)
Positions count from the first letter of the chain named.

T1: human EphA10 (Homo sapiens, UniProt Q5JZY3)
T1 construct: a protein of the extracellular region of each human Eph receptor fused with the SEAP protein and the His tag; made in house; host or cells: Expi293F cells (culture supernatant)
T1 sequence (Q5JZY3 34-565 limits assumed): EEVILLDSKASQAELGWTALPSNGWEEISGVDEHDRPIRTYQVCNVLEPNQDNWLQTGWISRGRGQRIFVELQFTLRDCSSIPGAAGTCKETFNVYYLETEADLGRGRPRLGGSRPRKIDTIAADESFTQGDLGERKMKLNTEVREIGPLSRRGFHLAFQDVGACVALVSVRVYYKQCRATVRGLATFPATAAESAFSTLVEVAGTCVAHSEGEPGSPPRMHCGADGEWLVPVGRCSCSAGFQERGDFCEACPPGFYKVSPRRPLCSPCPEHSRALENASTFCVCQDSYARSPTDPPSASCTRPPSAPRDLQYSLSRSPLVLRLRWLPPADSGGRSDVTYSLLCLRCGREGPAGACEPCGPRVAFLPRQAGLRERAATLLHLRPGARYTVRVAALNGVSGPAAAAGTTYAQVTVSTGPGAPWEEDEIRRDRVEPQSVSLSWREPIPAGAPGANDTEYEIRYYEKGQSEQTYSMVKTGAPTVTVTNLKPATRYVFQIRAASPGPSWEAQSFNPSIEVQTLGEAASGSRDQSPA

T2: human EphA6 (Homo sapiens, UniProt Q9UF33)
T2 construct: a protein of the extracellular region of each human Eph receptor fused with the SEAP protein and the His tag; made in house; host or cells: Expi293F cells (culture supernatant)
T2 sequence (Q9UF33 23-550 limits assumed): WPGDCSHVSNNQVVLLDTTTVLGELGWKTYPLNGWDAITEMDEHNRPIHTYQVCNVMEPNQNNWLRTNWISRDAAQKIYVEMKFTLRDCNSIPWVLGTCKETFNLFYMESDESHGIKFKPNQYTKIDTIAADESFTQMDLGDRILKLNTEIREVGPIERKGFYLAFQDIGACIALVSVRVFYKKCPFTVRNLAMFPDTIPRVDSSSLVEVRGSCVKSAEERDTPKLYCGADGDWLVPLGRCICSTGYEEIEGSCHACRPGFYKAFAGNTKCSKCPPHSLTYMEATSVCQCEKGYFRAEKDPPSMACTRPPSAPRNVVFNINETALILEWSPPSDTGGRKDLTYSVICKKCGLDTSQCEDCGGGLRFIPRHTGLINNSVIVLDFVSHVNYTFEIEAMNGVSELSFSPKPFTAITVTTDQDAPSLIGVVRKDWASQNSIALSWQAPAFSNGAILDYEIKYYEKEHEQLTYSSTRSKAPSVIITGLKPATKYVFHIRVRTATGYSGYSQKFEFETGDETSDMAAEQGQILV

T3: human EphB6 (Homo sapiens, UniProt O15197)
T3 construct: a protein of the extracellular region of each human Eph receptor fused with the SEAP protein and the His tag; made in house; host or cells: Expi293F cells
T3 sequence (O15197 32-594 limits assumed): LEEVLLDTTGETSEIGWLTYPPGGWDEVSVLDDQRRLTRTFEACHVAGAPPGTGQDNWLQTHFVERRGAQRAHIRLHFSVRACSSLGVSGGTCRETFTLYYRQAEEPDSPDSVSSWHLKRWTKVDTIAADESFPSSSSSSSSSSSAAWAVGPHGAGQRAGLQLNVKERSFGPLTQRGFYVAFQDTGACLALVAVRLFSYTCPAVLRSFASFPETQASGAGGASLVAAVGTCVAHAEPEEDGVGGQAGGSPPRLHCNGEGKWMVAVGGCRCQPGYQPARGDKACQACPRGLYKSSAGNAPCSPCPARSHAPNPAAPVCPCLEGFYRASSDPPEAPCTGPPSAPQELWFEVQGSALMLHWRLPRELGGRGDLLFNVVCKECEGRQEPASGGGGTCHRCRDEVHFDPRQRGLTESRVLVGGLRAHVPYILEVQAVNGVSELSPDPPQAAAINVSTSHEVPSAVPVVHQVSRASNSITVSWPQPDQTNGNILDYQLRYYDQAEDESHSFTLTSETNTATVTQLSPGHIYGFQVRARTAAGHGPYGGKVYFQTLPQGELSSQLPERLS

B1: 76 (antibody, V domains shown)
VH: QVQLVQSGSELKKPGASVKVSCKASGYTFTDYSMHWVRQAPGQGLKWMGWINTETGEPTYAQGFTGRFVFSLDTSVSTAYLQISSLKAEDTAVYYCARIPLYYYGSRYWYFDVWGQGTTVTVSS
VL: DIQMTQSPSSLSASVGDRVTITCRASENIYRNLAWYQQKPGKAPKLLVYAATNLADGVPSRFSGSGSGTDYTLTISSLQPEDFATYYCQHFWGTPWTFGQGTKVEIK
modifications: synthetic humanized antibody heavy chain variable region sequence; synthetic humanized antibody light chain variable region sequence
B2: 156 (antibody, V domains shown)
VH: B1 VH with V2I
VL: B1 VL with K45Q, V48L
modifications: synthetic humanized antibody heavy chain variable region sequence; synthetic humanized antibody light chain variable region sequence
B3: 67 (antibody, V domains shown)
VH: B1 VH with V2I
VL: B1 VL
modifications: synthetic humanized antibody heavy chain variable region sequence; synthetic humanized antibody light chain variable region sequence
B4: 136 (antibody, V domains shown)
VH: B1 VH with Q62D, G63D, T65K
VL: EIVMTQSPATLSVSPGERATLSCRASENIYRNLAWYQQKPGQSPRLLIYAATNLADGIPARFSGSGSGTEYTLTISSLQSEDFAVYYCQHFWGTPWTFGQGTKVEIK
modifications: synthetic humanized antibody heavy chain variable region sequence; synthetic humanized antibody light chain variable region sequence
B5: 78 (antibody, V domains shown)
VH: B1 VH with Q62D, G63D, T65K
VL: B1 VL
modifications: synthetic humanized antibody heavy chain variable region sequence; synthetic humanized antibody light chain variable region sequence
B6: 77 (antibody, V domains shown)
VH: B1 VH with K46E, Q62D, G63D, T65K
VL: B1 VL
modifications: synthetic humanized antibody heavy chain variable region sequence; synthetic humanized antibody light chain variable region sequence

target: T1, human EphA10; experiment: Selectivity ELISA of humanized antibodies for human Eph receptor; assay type: binding; conditions: coated protein 1 nM
Procedure, shortened: (§1)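 His-tagged SEAP fusions of each human Eph receptor extracellular region, from Expi293F supernatants, were captured at 1 nM on anti-His-coated wells. Humanized antibody was bound 1 h at room temperature, then detected with HRP […] IgG. TMB development was acid-stopped and read at 450 nm.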

| hEphA10-SEAP-: absorbance at 450 nm, percentage with respect to hEphA4-SEAP-His as 100% | Molecule |
| --- | --- |
| 4.7% | B1 |
| 5.3% | B2 |
| 4.6% | B3 |
| 5.2% | B4 |
| 5.2% | B5 |
| 4.5% | B6 |

target: T2, human EphA6; experiment: as above; assay type: binding; conditions: coated protein 1 nM
Procedure, shortened: as §1

| hEphA6-SEAP-: absorbance at 450 nm, percentage with respect to hEphA4-SEAP-His as 100% | Molecule |
| --- | --- |
| 7.9% | B1 |
| 8.9% | B2 |
| 7.3% | B3 |
| 7.2% | B4 |
| 10.0% | B5 |
| 6.0% | B6 |

target: T3, human EphB6; experiment: as above; assay type: binding; conditions: coated protein 1 nM
Procedure, shortened: as §1

| hEphB6-SEAP-: absorbance at 450 nm, percentage with respect to hEphA4-SEAP-His as 100% | Molecule |
| --- | --- |
| 5.2% | B1 |
| 5.7% | B2 |
| 4.7% | B3 |
| 5.5% | B4 |
| 5.2% | B5 |
| 4.5% | B6 |
